In PMC3869376:

Columns and labels:
14-3-3β [1] = target: 14-3-3β (UniProt P31946); assay: GST-14-3-3β pull-down from cell lysate; conditions: reference: HA-PDE3B wild type; sites S318
14-3-3β [2] = target: 14-3-3β (UniProt P31946); assay: DIG-GST-14-3-3β overlay on blotted immunoprecipitated PDE3B; conditions: reference: HA-PDE3B wild type; sites S318

14-3-3β, sequence (P31946 whole entry, looked up): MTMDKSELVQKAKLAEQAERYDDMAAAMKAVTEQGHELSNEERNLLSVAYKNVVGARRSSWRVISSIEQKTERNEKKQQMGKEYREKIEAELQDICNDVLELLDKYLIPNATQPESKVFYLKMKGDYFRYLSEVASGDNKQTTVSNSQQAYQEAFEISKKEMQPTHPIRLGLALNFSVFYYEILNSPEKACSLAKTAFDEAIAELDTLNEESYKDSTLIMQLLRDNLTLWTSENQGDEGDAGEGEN

binding against the reference (14-3-3β [1]): lost
binding against the reference (14-3-3β [2]): lost
Substance: PDE3B (phosphodiesterase 3B) (from UniProt Q13370-2) HA-PDE3B S318A
